Results taken from publication PMC3827151, “Methionine Mutations of Outer Membrane Protein X Influence Structural Stability and Beta-Barrel Unfolding” (PLoS ONE, 2013).
Substitutions are numbered along the chain they refer to. In names and notes the source's numbering stands.

B1: Outer membrane protein X H100N (OmpX^HN) (natural protein, E. coli, UniProt P0A917 24-171, looked up)
chain: ATSTVTGGYAQSDAQGQMNKMGGFNLKYRYEEDNSPLGVIGSFTYTEKSRTASSGDYNKNQYYGITAGPAYRINDWASIYGVVGVGYGKFQTTEYPTYKNDTSDYGFSYGAGLQFNPMENVALDFSYEQSRIRSVDVGTWIAGVGYRF
notes: also called OmpX H100N
B2: Outer membrane protein X H100N:M18L:M21L:M118L quadruple mutant (OmpX^M) (natural protein, E. coli, UniProt P0A917 24-171, looked up)
chain: B1 chain with M18L, M21L, M118L
notes: the 'initiator' Met is kept; PDB 1QJ8 is the parent OmpX^HN; also called Met-less construct

Target: the molecule itself
Assay: SDS-PAGE of unboiled samples (gel mobility shift); protein in 8 M urea diluted 20-fold into LDAO, DPC, 60PC or DMPC in 20 mM Tris-HCl pH 9.5, slow folding at 40°C for 3 h; samples not centrifuged; bands of folded and unfolded monomer and dimer

Protein	binding result
B1	binds
B2	binds
